Laboratory results as given in US20060252116A1, “Icam-4 binding sites” (priority 2002, published 2006).

B1: F18A mutant: human ICAM-4Fc fusion protein with point mutation F18A (protein)
chain: AQSPKGSPLAPSGTSVPAWVRMSPEFVAVQPGKSVQLNCSNSCPQPQNSSLRTPLRQGKTLRGPGWVSYQLLDVRAWSSLAHCLVTCAGKTRWATSRITAYKPPHSVILEPPVLKGRKYTLRCHVTQVFPVGYLVVTLRHGSRVIYSESLERFTGLDLANVTLTYEFAAGPRDFWQPVICHARLNLDGLVVRNSSAPITLMLAWSPAPTA
modifications: left off: a dimerising Fc or GST
notes: human ICAM-4Fc fusion protein with point mutation F18A
B2: S96A mutant: human ICAM-4Fc fusion protein with point mutation S96A (protein)
chain: AQSPKGSPLAPSGTSVPFWVRMSPEFVAVQPGKSVQLNCSNSCPQPQNSSLRTPLRQGKTLRGPGWVSYQLLDVRAWSSLAHCLVTCAGKTRWATARITAYKPPHSVILEPPVLKGRKYTLRCHVTQVFPVGYLVVTLRHGSRVIYSESLERFTGLDLANVTLTYEFAAGPRDFWQPVICHARLNLDGLVVRNSSAPITLMLAWSPAPTA
modifications: left off: a dimerising Fc or GST
notes: human ICAM-4Fc fusion protein with point mutation S96A
B3: T95V mutant: human ICAM-4Fc fusion protein with point mutation T95V (protein)
chain: AQSPKGSPLAPSGTSVPFWVRMSPEFVAVQPGKSVQLNCSNSCPQPQNSSLRTPLRQGKTLRGPGWVSYQLLDVRAWSSLAHCLVTCAGKTRWAVSRITAYKPPHSVILEPPVLKGRKYTLRCHVTQVFPVGYLVVTLRHGSRVIYSESLERFTGLDLANVTLTYEFAAGPRDFWQPVICHARLNLDGLVVRNSSAPITLMLAWSPAPTA
modifications: left off: a dimerising Fc or GST
notes: human ICAM-4Fc fusion protein with point mutation T95V
B4: K118E mutant: human ICAM-4Fc fusion protein with point mutation K118E (protein)
chain: AQSPKGSPLAPSGTSVPFWVRMSPEFVAVQPGKSVQLNCSNSCPQPQNSSLRTPLRQGKTLRGPGWVSYQLLDVRAWSSLAHCLVTCAGKTRWATSRITAYKPPHSVILEPPVLKGREYTLRCHVTQVFPVGYLVVTLRHGSRVIYSESLERFTGLDLANVTLTYEFAAGPRDFWQPVICHARLNLDGLVVRNSSAPITLMLAWSPAPTA
modifications: left off: a dimerising Fc or GST
notes: human ICAM-4Fc fusion protein with point mutation K118E
B5: R97E mutant: human ICAM-4Fc fusion protein with point mutation R97E (protein)
chain: AQSPKGSPLAPSGTSVPFWVRMSPEFVAVQPGKSVQLNCSNSCPQPQNSSLRTPLRQGKTLRGPGWVSYQLLDVRAWSSLAHCLVTCAGKTRWATSEITAYKPPHSVILEPPVLKGRKYTLRCHVTQVFPVGYLVVTLRHGSRVIYSESLERFTGLDLANVTLTYEFAAGPRDFWQPVICHARLNLDGLVVRNSSAPITLMLAWSPAPTA
modifications: left off: a dimerising Fc or GST
notes: human ICAM-4Fc fusion protein with point mutation R97E
B6: W19A mutant: human ICAM-4Fc fusion protein with point mutation W19A (protein)
chain: AQSPKGSPLAPSGTSVPFAVRMSPEFVAVQPGKSVQLNCSNSCPQPQNSSLRTPLRQGKTLRGPGWVSYQLLDVRAWSSLAHCLVTCAGKTRWATSRITAYKPPHSVILEPPVLKGRKYTLRCHVTQVFPVGYLVVTLRHGSRVIYSESLERFTGLDLANVTLTYEFAAGPRDFWQPVICHARLNLDGLVVRNSSAPITLMLAWSPAPTA
modifications: left off: a dimerising Fc or GST
notes: human ICAM-4Fc fusion protein with point mutation W19A
B7: R92E mutant: human ICAM-4Fc fusion protein with point mutation R92E (protein)
chain: AQSPKGSPLAPSGTSVPFWVRMSPEFVAVQPGKSVQLNCSNSCPQPQNSSLRTPLRQGKTLRGPGWVSYQLLDVRAWSSLAHCLVTCAGKTEWATSRITAYKPPHSVILEPPVLKGRKYTLRCHVTQVFPVGYLVVTLRHGSRVIYSESLERFTGLDLANVTLTYEFAAGPRDFWQPVICHARLNLDGLVVRNSSAPITLMLAWSPAPTA
modifications: left off: a dimerising Fc or GST
notes: human ICAM-4Fc fusion protein with point mutation R92E
B8: W66A mutant: human ICAM-4Fc fusion protein with point mutation W66A (protein)
chain: AQSPKGSPLAPSGTSVPFWVRMSPEFVAVQPGKSVQLNCSNSCPQPQNSSLRTPLRQGKTLRGPGAVSYQLLDVRAWSSLAHCLVTCAGKTRWATSRITAYKPPHSVILEPPVLKGRKYTLRCHVTQVFPVGYLVVTLRHGSRVIYSESLERFTGLDLANVTLTYEFAAGPRDFWQPVICHARLNLDGLVVRNSSAPITLMLAWSPAPTA
modifications: left off: a dimerising Fc or GST
notes: human ICAM-4Fc fusion protein with point mutation W66A
B9: T162V mutant: human ICAM-4Fc fusion protein with point mutation T162V (protein)
chain: AQSPKGSPLAPSGTSVPFWVRMSPEFVAVQPGKSVQLNCSNSCPQPQNSSLRTPLRQGKTLRGPGWVSYQLLDVRAWSSLAHCLVTCAGKTRWATSRITAYKPPHSVILEPPVLKGRKYTLRCHVTQVFPVGYLVVTLRHGSRVIYSESLERFTGLDLANVVLTYEFAAGPRDFWQPVICHARLNLDGLVVRNSSAPITLMLAWSPAPTA
modifications: left off: a dimerising Fc or GST
notes: human ICAM-4Fc fusion protein with point mutation T162V
B10: N160A mutant: human ICAM-4Fc fusion protein with point mutation N160A (protein)
chain: AQSPKGSPLAPSGTSVPFWVRMSPEFVAVQPGKSVQLNCSNSCPQPQNSSLRTPLRQGKTLRGPGWVSYQLLDVRAWSSLAHCLVTCAGKTRWATSRITAYKPPHSVILEPPVLKGRKYTLRCHVTQVFPVGYLVVTLRHGSRVIYSESLERFTGLDLAAVTLTYEFAAGPRDFWQPVICHARLNLDGLVVRNSSAPITLMLAWSPAPTA
modifications: left off: a dimerising Fc or GST
notes: human ICAM-4Fc fusion protein with point mutation N160A
B11: V20T mutant: human ICAM-4Fc fusion protein with point mutation V20T (protein)
chain: AQSPKGSPLAPSGTSVPFWTRMSPEFVAVQPGKSVQLNCSNSCPQPQNSSLRTPLRQGKTLRGPGWVSYQLLDVRAWSSLAHCLVTCAGKTRWATSRITAYKPPHSVILEPPVLKGRKYTLRCHVTQVFPVGYLVVTLRHGSRVIYSESLERFTGLDLANVTLTYEFAAGPRDFWQPVICHARLNLDGLVVRNSSAPITLMLAWSPAPTA
modifications: left off: a dimerising Fc or GST
notes: human ICAM-4Fc fusion protein with point mutation V20T
B12: A94L mutant: human ICAM-4Fc fusion protein with point mutation A94L (protein)
chain: AQSPKGSPLAPSGTSVPFWVRMSPEFVAVQPGKSVQLNCSNSCPQPQNSSLRTPLRQGKTLRGPGWVSYQLLDVRAWSSLAHCLVTCAGKTRWLTSRITAYKPPHSVILEPPVLKGRKYTLRCHVTQVFPVGYLVVTLRHGSRVIYSESLERFTGLDLANVTLTYEFAAGPRDFWQPVICHARLNLDGLVVRNSSAPITLMLAWSPAPTA
modifications: left off: a dimerising Fc or GST
notes: human ICAM-4Fc fusion protein with point mutation A94L

These molecules were tested on HT1080 cells (αv integrin) (assay: Adhesion of HT1080 cells to mutant human ICAM-4Fc). Conditions: FIG. 4; single residue mutants of human ICAM-4Fc, titrated coating concentration.
Assay type: cell-based
Method: Cell adhesion assays were performed as described in Spring et al. 2001 (supra). Immulon4 96 well plates (Dynex Technologies, Billingshurst, United Kingdom) were coated with 1 μg/well goat-antihuman-Fc (Sigma, Poole, United Kingdom) for 24 hours at 4° C., washed three times with PBS and coated with an Fc fusion ICAM-4 protein for 18 hours at 4° C. before blocking with 0.4% BSA PBS for 2 hours at 22° C. Cells were labelled with 10 μg/ml 2′,7′-bis-(2-carboxyethyl)-5-(and-6-) carboxyfluorescein acetoxymethyl ester in assay buffer (IMEM, 2 mM EGTA, 10 μg/ml human ivIgG) for 15 minutes at 37° C. HT1080 cells were activated with 80 μM phorbol myristate acetate prior to both cells being washed with assay buffer containing 2 mM Mn^2+. Cells, at 5×10^4 cells per well, were added to the ICAM-4Fc-coated plates for 30 minutes at 37° C., prior to being given repeated washes in assay buffer and read on a fluorescence microplate reader (excitation 485 nm, emission 530 nm). The percentage of bound cells was calculated after each wash. Peptide inhibition was performed by incubating the cells with 500 μM peptide at 0° C. for 15 minutes ahead of their addition, still in the presence of 500 μM peptide to the ICAM-4Fc coated plates. In peptide inhibition studies the appropriate ICAM-4Fc coating concentration for each cell line was pre-determined by titration of ICAM-4Fc and the lowest concentration at which maximal binding was achieved was used to coat the plates
Point mutations were inserted into ICAM-4 in pIg vector (see Simmons D L, 1993, Cloning cell surface molecules by transient expression in mammalian cells, In: Hartley D A, ed. Cellular interactions in development. New York, N.Y.:IRL press, 93-127) by PCR amplification over two stages. Oligonucleotides (see “Mutagenesis primers” below) containing mismatched bases, together with 5′-[…] (SEQ ID NO: 14) and 3′-[…] (SEQ ID NO: 15) primers were used to generate two overlapping products. Following gel purification the two overlapping PCR products were annealed together before final amplification using the 5′ and 3′ primers. The final PCR product was restricted and ligated into pIg vector. All mutant clones were verified by sequence analysis. Mutant ICAM-4Fc proteins were expressed in COS-7 cells as described in Simmons D L (1993, supra), and purified from culture supernatant on protein A-Sepharose.

Row | Molecule | adhesion of HT1080 cells to mutant ICAM-4Fc compared with wild-type
1 | B1 | decrease in binding
2 | B2 | decrease in binding
3 | B3 | decrease in binding
4 | B4 | decrease the level of adhesion
5 | B5 | decrease in binding
6 | B6 | decrease in binding
7 | B7 | decrease in binding
8 | B8 | decrease the level of adhesion
9 | B9 | elevated level of adhesion
10 | B10 | elevated level of adhesion
11 | B11 | decrease in binding
12 | B12 | decrease in binding
